Laboratory results published in patent publication US20100119516A1 (Eli Lilly, published 2010).
Numbering of substitutions follows the chain as printed.

Tests used:
[1] = target: T1, native human TGFβRII expressed on the cell surface (human, UniProt P37173 23-567); assay: cell-based or functional assay
[2] = target: T2, soluble recombinant human TGFβRII alkaline phosphatase (TGFβRII-AP) (human, UniProt P37173 23-166); assay: blocking ELISA: TGFβRII-AP binding to coated human TGFβ1
T2 construct: also called TGFβII-AP; not shown: alkaline phosphatase fusion partner
Description: (§1) At day 10 to 12 post-fusion, the hybridomas are screened for antibody production and specific binding activity of culture supernatants with TGFβRII protein in ELISA-based binding and blocking assays. Specifically, hybridomas producing anti-TGFβRII mAbs are first identified by detection of TGFβRII-bound antibody with a goat anti-human kappa light chain or anti-mouse IgG horse radish peroxidase (HRP) conjugated antibody according to the following procedure. Human TGFβRII-Fc or mouse TGFβRII-Fc is coated at 100 ng/well on 96 microtiter plates at 4° C. overnight. The coated plates are blocked with the blocking buffer (PBS 0.05% TWEEN® 20 containing 5% dry milk) at room temperature for 2 hours. Hybridoma supernatants or purified antibodies are diluted in PBS with 2% bovine serum albumin (BSA) and 0.05% TWEEN® 20 (ELISA buffer) and incubated in TGFβRII-coated, 96-well, microtiter plates for 30 minutes. Plates are washed with the ELISA buffer and incubated with goat anti-human kappa light chain or anti-mouse IgG-HRP conjugate for 30 minutes. TMB (3,3′,5,5′-tetra-methylbenzidine) substrate is used for color development following the manufacturer's instructions. The absorbance at 450 nanometers (nm) is read for quantification of binding activity of antibodies. For identification of hybridomas producing neutralizing anti-TGFβRII mAbs, an ELISA based blocking assay is performed according to the following procedure. TGFβ1, TGFβ2, or TGFβ3 is coated at 200 ng per well on 96-well plates, and wells are then blocked with the blocking buffer. […] The absorbance at 405 nm is read for quantification of TGFβRII-binding to TGFβ1, TGFβ2, and TGFβ3. Optical density (OD) values are read on a microtiter plate reader (Molecular Devices Corp., Sunnyvale, Calif.).
(§2) The binding and blocking activity of purified anti-TGFβRII mAbs is determined in ELISA as described in “Generation of anti-TGFβRII mAbs” above. ED₅₀ and IC₅₀ of the antibodies are analyzed using GraphPad Prism® software 3.03 (GraphPad Software Inc., San Diego, Calif.).

[3] = target: T2, soluble recombinant human TGFβRII …; assay: blocking ELISA: TGFβRII-AP binding to coated human TGFβ2
Description: as §1, §2

[4] = target: T2, soluble recombinant human TGFβRII …; assay: blocking ELISA: TGFβRII-AP binding to coated human TGFβ3
Description: as §1, §2

[5] = target: T3, human TGFβRII-Fc (recombinant extracellular domain of human TGFβRII linked with human Fc or heavy chain … (human, UniProt P37173 23-166)); assay: binding ELISA on coated human TGFβRII-Fc (given as ED50)
T3 construct: not shown: human Fc or heavy chain constant region
Description: as §1, §2

[6] = target: T3, human TGFβRII-Fc (recombinant …); assay: SPR (Biacore), human TGFβRII ECD-Fc immobilised, room temperature
Experimental: (§3) Kinetic analyses of the mAbs are performed by immobilization of a fusion protein of recombinant extracellular domain of either mouse TGFβRII (SEQ ID NO: 51), or the extracellular domain of human TGFβRII (SEQ ID NO: 52) linked, respectively, with either mouse or human Fc or heavy chain constant region, onto a sensor surface at a concentration of from 5 to 100 nM.

[7] = target: T3, human TGFβRII-Fc (recombinant …); assay: SPR (BIAcore 2000), human TGFβRII ECD-Fc immobilised, room temperature
Experimental: as §3

[8] = target: T1, native human TGFβRII expressed on the …; assay: flow cytometry on 293-human TGFβRII transfectant cells; MFI against isotype control
Experimental: (§4) Binding activity of anti-human TGFβRII mAb TGF1 and fluorescein isothiocyanate (FITC)-labeled goat anti-human IgG antibody may be determined by a staining assay with 293-human TGFβRII transfectant cells and human carcinoma cells. Specifically, aliquots of transfectant cells, carcinoma cells, spleen cells, or lymph node cells are harvested from subconfluent cultures and incubated with fluorescein-labeled or unlabeled primary antibodies to desired molecules in PBS with 1% BSA (staining buffer) for 1 hour on ice. A matched IgG isotype is used as a negative control. Cells are washed twice with the staining buffer and then incubated with FITC, Phycoerythrin (PE) or Alxas Red labeled species-specific secondary antibody to primary antibody (BioSource International, Camarillo, Calif.) in the buffer for 30 min on ice. Cells are washed as above and analyzed on a flow cytometer. […] The mean fluorescent intensity units (MFIU) are calculated as the mean log fluorescence multiplied by the percentage of positive population. The mean fluorescent intensity ratio (MFIR) is calculated to quantitate relative expression levels of TGFβRII in the cell lines. The MFIR is the mean fluorescence intensity (MFI) of cells stained with TGFβRII specific mAb divided by the MFI of cells stained with an isotype control antibody.

[9] = target: T1, native human TGFβRII expressed on the …; assay: flow cytometry on MDA-MB-231 human breast carcinoma cells; MFI against isotype control
Experimental: as §4

[10] = target: T4, mouse TGFβRII-Fc (recombinant extracellular domain of mouse TGFβRII linked with mouse Fc or heavy chain … (mouse)); assay: ELISA
T4 construct: also called murine TGFβRII; not shown: mouse Fc or heavy chain constant region
T4 chain: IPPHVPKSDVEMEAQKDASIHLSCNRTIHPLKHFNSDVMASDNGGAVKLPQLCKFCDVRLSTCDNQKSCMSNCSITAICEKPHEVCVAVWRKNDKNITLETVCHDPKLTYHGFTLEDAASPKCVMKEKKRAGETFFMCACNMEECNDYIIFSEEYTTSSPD

T1 sequence (P37173 23-567): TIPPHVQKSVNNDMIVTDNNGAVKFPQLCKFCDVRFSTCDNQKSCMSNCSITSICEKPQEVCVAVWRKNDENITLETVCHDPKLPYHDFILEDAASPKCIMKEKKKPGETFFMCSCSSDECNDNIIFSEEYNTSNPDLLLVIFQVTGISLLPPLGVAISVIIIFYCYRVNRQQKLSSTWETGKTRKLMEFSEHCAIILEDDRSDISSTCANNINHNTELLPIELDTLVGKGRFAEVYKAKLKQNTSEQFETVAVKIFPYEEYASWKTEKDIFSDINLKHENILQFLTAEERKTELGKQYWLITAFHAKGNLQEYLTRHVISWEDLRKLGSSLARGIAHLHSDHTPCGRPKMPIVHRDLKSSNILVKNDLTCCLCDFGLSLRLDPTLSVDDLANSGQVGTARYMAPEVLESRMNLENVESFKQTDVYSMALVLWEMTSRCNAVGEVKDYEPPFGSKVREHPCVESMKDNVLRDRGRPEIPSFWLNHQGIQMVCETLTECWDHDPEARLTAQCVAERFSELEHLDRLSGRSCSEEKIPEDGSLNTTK
T2 sequence (P37173 23-166): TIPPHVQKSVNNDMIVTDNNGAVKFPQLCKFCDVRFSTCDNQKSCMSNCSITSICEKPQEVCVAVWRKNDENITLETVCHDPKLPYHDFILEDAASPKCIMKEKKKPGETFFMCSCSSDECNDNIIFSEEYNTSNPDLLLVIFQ
T3 sequence (P37173 23-166): as above

B1: anti-human TGFβRII mAb TGF1 (antibody, human IgG1, kappa, V domains shown)
VH: QLQVQESGPGLVKPSETLSLTCTVSGGSISNSYFSWGWIRQPPGKGLEWIGSFYYGEKTYYNPSLKSRATISIDTSKSQFSLKLSSVTAADTAVYYCPRGPTMIRGVIDSWGQGTLVTVSS
VL: EIVLTQSPATLSLSPGERATLSCRASQSVRSYLAWYQQKPGQAPRLLIYDASNRATGIPARFSGSGSGTDFTLTISSLEPEDFAVYYCQQRSNWPPTFGQGTKVEIKG
notes: Human antibody from human-immunoglobulin transgenic mice, engineered as full-length human IgG1 with kappa light chain
For B1, the “IC50 in the p-Smad2 inhibition assay (TGFβ-induced phosphorylation of Smad2, MDA-MB-231 cells, Western blot)” value [1] was 5000 pM, the IC50 [2] was 120 pM and the IC50 [3] was 540 pM. It also gave an IC50 [4] of 190 pM, an EC50 [5] of 59 pM and a Kd [6] of 11 pM. For the same binder, the Kd [7] was 11 pM, the koff [7] was 1.7e-05 s⁻¹ and the kon [7] was 1.5e+06 M⁻¹ s⁻¹. For the same binder, the “MFIR (mean fluorescent intensity ratio)” value [8] was 46 and the “MFIR (mean fluorescent intensity ratio)” value [9] was 209.

B2: anti-human TGFβRII mAb TGF3 (antibody, human IgG1, kappa, V domains shown)
VH: QLQLQESGPGLVKPSETLSLTCTVSGGSISSSSYSWGWIRQPPGKGLEWIGSFYYSGITYYSPSLKSRIIISEDTSKNQFSLKLSSVTAADTAVYYCASGFTMIRGALDYWGQGTLVTVSS
VL: B1 VL with Y32F
notes: Human IgG1 with kappa light chain
In the case of B2, the binding result [10] is reported as “binds”, the “IC50 in the p-Smad2 inhibition assay (TGFβ-induced phosphorylation of Smad2)” value [1] is reported as < 25000 pM and the IC50 [2] is reported as 100 pM. For the same binder, the IC50 [3] was 410 pM, the IC50 [4] was 130 pM and the EC50 [5] was 31 pM. For the same binder, the Kd [6] was 19 pM, the Kd [7] was 19 pM and the koff [7] was 2.7e-05 s⁻¹. The kon [7] was 1.4e+06 M⁻¹ s⁻¹.

B3: anti-human TGFβRII mAb TGF2 (antibody, V domains shown)
VH: QVQLVQSGAAVKKPGESLKISCKGSGYRFTSYWIGWVRQMPGKGLEWMGIIYPGDSDTRYSPSFQGQVTISAGKSISTAYLQWSSLKASDTAMYYCARHGRGYNGYEGAFDIWGQGTMVTVSS
VL: DIQMTQSPSSLSASVGDRVTITCRASQGISSWLAWYQQKPEKAPKSLIYAASSLQSGVPSRFSGSGSGTDFTLTISSLQPEDFATYYCQQYNSYPWTFGQGTKVEIKG
notes: as for B2
For B3, the binding result [10] was “binds”, the “IC50 in the p-Smad2 inhibition assay (TGFβ-induced phosphorylation of Smad2)” value [1] was < 25000 pM and the IC50 [2] was 190 pM. The IC50 [3] was 420 pM, the IC50 [4] was 250 pM and the EC50 [5] was 48 pM. The Kd [6] was 78 pM, the Kd [7] was 78 pM and the koff [7] was 3.4e-05 s⁻¹. For the same binder, the kon [7] was 430000 M⁻¹ s⁻¹.
